B1: CBS syn (dsDNA)
DNA 1: GGGAATTAAGTTGAATGAATAGGCTGGGCC
DNA 2: GGCCCAGCCTATTCATTCAACTTAATTCCC
B2: ETV5 18-bp CBS (dsDNA)
DNA 1: GGTTATGAATGAAAAACC
DNA 2: GGTTTTTCATTCATAACC

Tests used:
[1] = target: T1, Hs CIC HMG-C1-His (Homo sapiens, UniProt Q96RK0-2;Q96RK0-2 188-288;1451-1527); assay: EMSA; 60 mM Hepes pH 7.9, 20 mM Tris-HCl pH 7.9, 300 mM KCl, 5 mM EDTA, 5 mM DTT, 12% glycerol, 1 ug poly(dI-dC), 1 ug BSA, ~1 ng probe in 20 ul; 20 min on ice; 5% native PAGE in 0.5X TBE at 4 C; settings: protein: recombinant; tags: His; copies: 1;1; label: 32P
T1 sequence (Q96RK0 1097-1197, chain 1 of 2): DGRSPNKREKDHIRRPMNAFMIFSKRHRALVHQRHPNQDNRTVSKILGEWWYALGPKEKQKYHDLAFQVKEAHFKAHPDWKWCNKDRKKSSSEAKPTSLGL
T1 sequence (Q96RK0 2360-2436, chain 2 of 2): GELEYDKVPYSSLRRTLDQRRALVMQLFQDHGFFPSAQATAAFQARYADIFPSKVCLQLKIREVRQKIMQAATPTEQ

[2] = target: T1, Hs CIC HMG-C1-His; assay: EMSA; similar affinity to longer probes; 60 mM Hepes pH 7.9, 20 mM Tris-HCl pH 7.9, 300 mM KCl, 5 mM EDTA, 5 mM DTT, 12% glycerol, 1 ug poly(dI-dC), 1 ug BSA, ~1 ng probe in 20 ul; 20 min on ice; 5% native PAGE in 0.5X TBE at 4 C; settings: protein: recombinant; tags: His; copies: 1;1; label: 32P

Binder | binding result [1] | binding result [2]
B1 | binds | 
B2 |  | binds

Source: PMC5344332, “A new mode of DNA binding distinguishes Capicua from other HMG-box factors and explains its mutation patterns in cancer”
